# Assay results as given in US8158585B2, “Cross-β structure comprising amyloid-binding proteins and methods for detection of the cross-β structure, for modulating cross-β structures fiber formation and modulating cross-β structure-mediated toxicity” (CrossBeta Biosciences B.V., priority 2002, dated 2012).
# Where no end group is shown, it is not given here.
# B1: F-EGF-K1-GST: F-EGF-K1 fragment of human tPA with C-terminal GST tag (protein)
# chain: SYQVICRDEKTQMIYQQHQSWLRPVLRSNRVEYCWCNSGRAQCHSVPVKSCSEPRCFNGGTCQQALYFSDFVCQCPEGFAGKCCEIDTRATCYEDQGISYRGTWSTAESGAECTNWNSSALAQKPYSGRRPDAIRLGLGNHNYCRNPDRDSKPWCYVFKAGKYSSEFCSTPACSE
# modifications: left off: small tags and cut ends; a dimerising Fc or GST
# notes: F-EGF-K1 fragment of human tPA with C-terminal GST tag
# B2: K1-GST: K1 fragment of human tPA with C-terminal GST tag (protein)
# chain: TRATCYEDQGISYRGTWSTAESGAECTNWNSSALAQKPYSGRRPDAIRLGLGNHNYCRNPDRDSKPWCYVFKAGKYSSEFCSTPACSE
# modifications: left off: small tags and cut ends; a dimerising Fc or GST
# notes: K1 fragment of human tPA with C-terminal GST tag
# How the values were obtained:
# tPA = molecular target: T1, tPA (Homo sapiens, UniProt P00750); assay: ELISA: binding of tPA to 86-week glycated albumin-AGE preparations; details: albumin incubated 86 weeks; 10 mM εACA
# T1 construct: purchased Boehringer-Ingelheim (Germany)
# Procedure: Binding of the cross-B structure marker tPA to albumin-AGE was tested using an ELISA setup. […] Therefore, we used tPA binding to these two peptides as positive control. The 86-week glycated samples and controls were coated to Greiner microlon plates (catalogue #655092, Greiner, Frickenhausen, Germany). Wells were blocked with Superblock (Pierce, Rockford, Ill., USA). All subsequent incubations were performed in PBS/0.1% (v/v) Tween 20 for one hour at room temperature while shaking, with volumes of 50 μl per well. After incubation, wells were washed five times with 300 μl PBS/0.1% (v/v) Tween 20. Increasing concentrations of tPA were added in triplicate to coated wells as well as to control wells. During tPA incubations of 86-week incubated samples, at least a 123,000 times molar excess of ε-amino caproic acid (εACA, 10 mM) was added to the solutions. εACA is a lysine analogue and is used to avoid potential binding of tPA to albumin via its kringle 2 domain.^50 Monoclonal antibody 374b (American Diagnostica, Instrumentation laboratory, Breda, The Netherlands) and, subsequently, RAMPO (Dako diagnostics, Glostrup, Denmark) was added to the wells at a concentration of 0.3 μg ml^−1. Bound peroxidase-labeled antibody was visualized using 100 μl of a solution containing 8 mg ortho-phenylene-diamine in 20 ml 50 mM citric acid/100 mM Na2HPO4 pH 5.0 with 0.0175% (v/v) H2O2. Staining was stopped upon adding 50 μl of a 2 M H2SO4 solution. Absorbance was read at 490 nm on a Vmax kinetic microplate reader (Molecular Devices, CA, USA). Background signals from non-coated control wells were substracted from corresponding coated wells.
# [1] = molecular target: T2, tPA-mediated plasminogen activation (Homo sapiens, UniProt P00750); assay: Plasminogen activation assay; assay type: biochemical; details: plasminogen 200 μg ml−1, tPA 200 pM, 5 μM co-factor, S-2251
# T2 construct: purchased Boehringer-Ingelheim (Germany)
# Procedure: Plasminogen (200 μg ml^−1) was incubated with tPA (200 pM) in the presence or the absence of a co-factor (5 μM of either endostatin, Aβ (1-40), or one the fibrin-derived peptides 85, 86 and 87). At the indicated time intervals, samples were taken and the reaction was stopped in a buffer containing 5 mM EDTA and 150 mM εACA. After collection of the samples, a chromogenic plasmin substrate S-2251 was added and plasmin activity was determined kinetically in a spectrophotometer at 37° C.
# Aβ fibrils = molecular target: T3, Aβ fibrils (Homo sapiens, UniProt P05067); assay: Amyloid pull-down with insoluble Aβ fibers; assay type: binding; details: conditioned BHK medium
# T3 construct: Peptide Aβ (1-40), containing amino acids as present in the described human Alzheimer peptide; purchased Pepscan, Inc. (The Netherlands) or peptide synthesis facility at the Netherlands Cancer Institute; host or cells: synthetic peptide
# Procedure: Conditioned medium of BHK cells expressing GST-tagged tPA F, F-EGF, EGF, K1, F-EGF-K1, FXII F, HGFa F, Fn F4, Fn F5, Fn F4-5 and GST was used for amyloid binding assays. At first, constructs were adjusted to approximately equal concentration using Western blots. Qualitative binding of the recombinant fragments were evaluated using a “pull-down” assay. To this end, the recombinantly made fragments were incubated with either Aβ or IAPP fibrils. Since these peptides form insoluble fibers, unbound proteins can be easily removed from the fibers following centrifugation. The pellets containing the bound fragments were subsequently washed several times. Bound fragments were solubilized in SDS-sample buffer and analyzed by PAGE, as were unbound proteins in the supernatant fraction and starting material. The gels were analyzed using immunoblotting analysis with the anti-GST antibody Z-5.
# [2] = Circular dichroism: percentage β-sheet (k2d software); assay type: physicochemical
# Procedure: UV circular dichroism (CD) spectra of peptide and protein solutions ([…] in H2O) were measured on a JASCO J-810 CD spectropolarimeter (Tokyo, Japan). Averaged absorption spectra of five or ten single measurements from 190-240 nm or from 190-250 nm, for fibrin peptides 85, 86, 87 or for albumin, glycated albumin and human Aβ (16-22), respectively, are recorded. The CD spectrum of Aβ (16-22) was measured as a positive control. Aβ (16-22) readily adopts amyloid fiber conformation with cross-β structure when incubated in H2O^45. For albumin and Aβ (16-22), relative percentage of the secondary structure elements present was estimated using k2d software.^48
# T2 sequence (P00750 36-562): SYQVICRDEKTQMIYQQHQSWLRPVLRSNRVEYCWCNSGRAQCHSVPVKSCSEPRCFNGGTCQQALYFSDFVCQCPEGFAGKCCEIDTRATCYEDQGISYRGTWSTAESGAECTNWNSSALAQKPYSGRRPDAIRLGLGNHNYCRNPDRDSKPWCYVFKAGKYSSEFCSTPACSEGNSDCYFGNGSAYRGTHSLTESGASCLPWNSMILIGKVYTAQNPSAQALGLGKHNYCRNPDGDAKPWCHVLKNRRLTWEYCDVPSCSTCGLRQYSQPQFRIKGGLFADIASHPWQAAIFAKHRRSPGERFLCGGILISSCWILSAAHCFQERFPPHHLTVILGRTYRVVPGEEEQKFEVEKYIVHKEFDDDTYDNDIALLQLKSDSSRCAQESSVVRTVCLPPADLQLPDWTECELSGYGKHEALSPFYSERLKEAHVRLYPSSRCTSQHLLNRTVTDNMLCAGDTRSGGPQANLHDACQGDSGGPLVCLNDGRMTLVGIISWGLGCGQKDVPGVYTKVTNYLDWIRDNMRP
# T1 sequence (P00750 36-562): as above
# T3 sequence (P05067 672-711): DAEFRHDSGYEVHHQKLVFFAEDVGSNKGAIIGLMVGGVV
molecule,measurement,setting,value
KCNTATCATQRLANFLVHSSNNFGAILSSTNVGSNTY (Peptide fl-hIAPP from Homo sapiens),binding of amyloid-specific serine protease tPA,tPA,bound specifically
same,stimulation of tPA-mediated plasmin formation,[1],stimulate
same,stimulation of tPA-mediated plasmin formation,[1]; listed as IAPP,enhanced
EGF-GST: EGF fragment of human tPA with C-terminal GST tag (CSEPRCFNGGTCQQALYFSDFVCQCPEGFAGKCCEID-{GST}; cysteine pairing not given here),"binding to Aβ fibers (pull-down, Western blot)",Aβ fibrils,remain in the supernatant
KRLEVDIDIKIR (Peptide FP12 from Homo sapiens) [compound 86],stimulation of tPA-mediated plasmin formation,[1],stimulate
Albumin-glyceraldehyde: glyceraldehyde-modified albumin,binding of amyloid-specific serine protease tPA,tPA,bound specifically
same,β-sheet (%),[2]; incubation time 2 weeks,0%
albumin-glyoxylic acid: albumin incubated 86 weeks with 500 mM glyoxylic acid/100 mM NaCNBH3,binding of amyloid-specific serine protease tPA,tPA,No tPA binding
KRLEVDIDIK (Peptide FP10 from Homo sapiens) [compound 87],stimulation of tPA-mediated plasmin formation,[1],does not
KRLEVDIDIKIRS (Peptide FP13 from Homo sapiens) [compound 85],stimulation of tPA-mediated plasmin formation,[1],stimulate
SNNLGPVLPP (Peptide Delta mIAPP from Homo sapiens) [Δ-mIAPP],stimulation of tPA-mediated plasmin formation,[1],not
Albumin control: albumin incubated with g6p or glyceraldehyde omitted [reference compound],β-sheet (%),[2]; incubation time 2 weeks,0%
same,β-sheet (%),[2]; incubation time 23 weeks,0%
"Aβ (16-22): human Aβ fragment, positive control that adopts amyloid fiber conformation (KLVFFAE) [reference compound]",β-sheet (%),[2]; no incubation time given,100%
SNNFGAILSS (Peptide Delta hIAPP from Homo sapiens) [Δ-hIAPP],stimulation of tPA-mediated plasmin formation,[1],stimulate
B1,"binding to Aβ fibers (pull-down, Western blot)",Aβ fibrils,Efficient binding
B2,"binding to Aβ fibers (pull-down, Western blot)",Aβ fibrils,remain in the supernatant
